Measured values taken from PMC6867900, “The Cyclic AMP Receptor Protein Regulates Quorum Sensing and Global Gene Expression in Yersinia pestis during Planktonic Growth and Growth in Biofilms” (mBio, 2019).

Target: the molecule itself
Experiment: crystal structure

B1: Yersinia pestis cyclic AMP (cAMP) receptor protein (Crp) (natural protein)
chain: MVLGKPQTDPTLEWFLSHCHIHKYPSKSTLIHQGEKAETLYYIVKGSVAVLIKDEEGKEMILSYLNQGDFIGELGLFEEGQERSAWVRAKTACEVAEISYKKFRQLIQVNPDILMRLSSQMANRLQITSEKVGNLAFLDVTGRIAQTLLNLAKQPDAMTHPDGMQIKITRQEIGQIVGCSRETVGRILKMLEDQNLISAHGKTIVVYGTR
notes: also called Y. pestis Crp
- stoichiometry N: 2
